No end group written: not given here.
How the values were obtained:
[1] = target: T1, polymerized microtubules (bovine brain tubulin) (Bos taurus, UniProt P81947+Q6B856); assay: Microtubule depolymerization assay (centrosomes omitted); type: biochemical; conditions: centrosomes absent; nocodazole 15 μM as positive control; data not shown
T1 construct: containing 125 μg bovine brain tubulin (Cytoskeleton, Denver, Colo.); purchased Cytoskeleton, Denver, Colo; host or cells: bovine brain (tissue-purified)
T1 sequence (P81947 whole entry): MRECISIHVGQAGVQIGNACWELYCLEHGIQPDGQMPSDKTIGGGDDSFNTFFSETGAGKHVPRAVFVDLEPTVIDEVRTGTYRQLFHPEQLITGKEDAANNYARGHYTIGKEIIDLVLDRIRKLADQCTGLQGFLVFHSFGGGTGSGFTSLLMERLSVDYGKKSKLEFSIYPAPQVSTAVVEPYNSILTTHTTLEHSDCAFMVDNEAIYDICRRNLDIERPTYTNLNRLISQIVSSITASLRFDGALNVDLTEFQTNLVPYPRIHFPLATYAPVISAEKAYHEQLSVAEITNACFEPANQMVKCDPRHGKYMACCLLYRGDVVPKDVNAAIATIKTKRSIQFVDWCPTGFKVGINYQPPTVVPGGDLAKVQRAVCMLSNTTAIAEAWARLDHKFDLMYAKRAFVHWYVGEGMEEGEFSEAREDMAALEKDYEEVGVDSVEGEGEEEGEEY
T1 sequence (Q6B856 whole entry): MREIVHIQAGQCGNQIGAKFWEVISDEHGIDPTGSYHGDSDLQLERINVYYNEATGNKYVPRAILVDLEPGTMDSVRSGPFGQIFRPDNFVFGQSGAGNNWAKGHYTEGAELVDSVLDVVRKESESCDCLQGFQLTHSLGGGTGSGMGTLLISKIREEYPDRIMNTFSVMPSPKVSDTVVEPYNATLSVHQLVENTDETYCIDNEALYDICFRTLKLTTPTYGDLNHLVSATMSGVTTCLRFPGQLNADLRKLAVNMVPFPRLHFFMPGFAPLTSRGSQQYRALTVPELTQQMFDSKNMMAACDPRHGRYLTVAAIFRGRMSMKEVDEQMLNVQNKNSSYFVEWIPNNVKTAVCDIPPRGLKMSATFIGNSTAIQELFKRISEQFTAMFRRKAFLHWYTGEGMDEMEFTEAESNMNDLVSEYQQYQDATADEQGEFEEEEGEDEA
Experimental: Microtubule Depolymerization Assay
In this assay, centrosomes are omitted from the above reaction mixtures to determine the effects of various truncated GST-CPAP proteins or synthetic peptides on microtubule polymerization in the absence of centrosomes. Polymerized microtubules were stained using FITC-conjugated anti-α-tubulin monoclonal antibodies, as above. Nocodazole (15 μM) was added to some reactions mixtures as a positive control for microtubule depolymerization.

HeLa cells = assay: Cell-based assay for CPAP activity: microtubule reassembly in cold-treated transfected HeLa cells; parameters: species or system human; conditions: for Inhibition of microtubule reassembly in cold-treated mitotic cells (in words): transiently transfected HeLa cells
Experimental: Cell Culture and Transfection
HeLa cells were maintained in DMEM supplemented with 10% fetal bovine serum. cDNA clones encoding different portions of CPAP were subcloned, in an appropriate reading frame, into the CMV promoter-driven EGFP-C1 expression vector (Clontech, Palo Alto, Calif.). Transient transfections were performed using Lipofectamine 2000 (Invitrogen, Carlsbad, Calif.) according to the manufacturer's instructions.
Cold Treatment, Immunofluorescence and Confocal Microscopy
HeLa cells were grown on coverslips for at least 24 hr. Cold treatment was performed by incubating the cells at 4° C. for 1 hr, then replacing the cold medium with medium warmed to 30° C. and incubating the cells for 2 min at 30° C. The cells were then fixed with 1% formaldehyde for 30 min at room temperature.
The fixed cells were incubated in the presence of anti-α-tubulin monoclonal antibodies (N356, Amersham, Piscataway, N.J.) and anti-γ-tubulin polyclonal antibodies (Sigma, Saint Louis, Mo.). Bound anti-α-tubulin monoclonal antibodies (N356) were detected with Alexa 568, a Texas Red-conjugated goat anti-mouse IgG, or Alexa 647, a far-red fluorophore-conjugated goat anti-mouse IgG. Bound anti-γ-tubulin polyclonal antibodies were detected with Alexa 568 (Molecular Probes Inc.). The resulting […] signals were detected using a laser scanning confocal system (MRC 1000, Bio-Rad Laboratories, Hercules, Calif.).
The effect of various polypeptides derived from CPAP was determined by evaluating the amounts of mitotic spindle formation in the transfected cells. Decreased mitotic spindle formation indicated the presence of an activity that inhibited microtubule formation or destabilized microtubules.

Molecule: COC(=O)Nc1nc2ccc(C(=O)c3cccs3)cc2[nH]1 [nocodazole, Nocodazole, reference compound]
- Disassembly of polymerized microtubules in the absence of centrosomes (in words) [1]: disassembled

Molecule: GST-PN2-1: GST fusion polypeptide with sub-region PN2-1 of PN2 (CPAP residues 132-190 per b157) (EFKEGAYKDPLFKKLEQLKEVQQKKQEQLKRQQLEQLQRLMEEQEKLLTMVSGQCTLPG; also: GST fusion, terminus not given here)
- Disassembly of polymerized microtubules in the absence of centrosomes (in words) [1]: no such effect

B1: GFP-CPAP-fl: GFP-tagged full-length CPAP polypeptide, residues 1-1338, expressed from a transfected vector (protein, UniProt Q9HC77 1-1338, looked up)
chain: MFLMPTSSELNSGQNFLTQWMTNPSRAGVILNRGFPILEADKEKRAAVDISTSFPIKGTHFSDSFSFINEEDSLLEEQKLESNNPYKPQSDKSETHTAFPCIKKGPQVAACHSAPGHQEENKNDFIPDLASEFKEGAYKDPLFKKLEQLKEVQQKKQEQLKRQQLEQLQRLMEEQEKLLTMVSGQCTLPGLSLLPDDQSQKHRSPGNTTTGERATCCFPSYVYPDPTQEETYPSNILSHEQSNFCRTAHGDFVLTSKRASPNLFSEAQYQEAPVEKNNLKEENRNHPTGESILCWEKVTEQIQEANDKNLQKHDDSSEVANIEERPIKAAIGERKQTFEDYLEEQIQLEEQELKQKQLKEAEGPLPIKAKPKQPFLKRGEGLARFTNAKSKFQKGKESKLVTNQSTSEDQPLFKMDRQQLQRKTALKNKELCADNPILKKDSKARTKSGSVTLSQKPKMLKCSNRKSLSPSGLKIQTGKKCDGQFRDQIKFENKVTSNNKENVTECPKPCDTGCTGWNKTQGKDRLPLSTGPASRLAAKSPIRETMKESESSLDVSLQKKLETWEREKEKENLELDEFLFLEQAADEISFSSNSSFVLKILERDQQICKGHRMSSTPVKAVPQKTNPADPISHCNRSEDLDHTAREKESECEVAPKQLHSLSSADELREQPCKIRKAVQKSTSENQTEWNARDDEGVPNSDSSTDSEEQLDVTIKPSTEDRERGISSREDSPQVCDDKGPFKDTRTQEDKRRDVDLDLSDKDYSSDESIMESIKHKVSEPSRSSSLSLSKMDFDDERTWTDLEENLCNHDVVLGNESTYGTPQTCYPNNEIGILDKTIKRKIAPVKRGEDLSKSRRSRSPPTSELMMKFFPSLKPKPKSDSHLGNELKLNISQDQPPGDNARSQVLREKIIELETEIEKFKAENASLAKLRIERESALEKLRKEIADFEQQKAKELARIEEFKKEEMRKLQKERKVFEKYTTAARTFPDKKEREEIQTLKQQIADLREDLKRKETKWSSTHSRLRSQIQMLVRENTDLREEIKVMERFRLDAWKRAEAIESSLEVEKKDKLANTSVRFQNSQISSGTQVEKYKKNYLPMQGNPPRRSKSAPPRDLGNLDKGQAASPREPLEPLNFPDPEYKEEEEDQDIQGEISHPDGKVEKVYKNGCRVILFPNGTRKEVSADGKTITVTFFNGDVKQVMPDQRVIYYYAAAQTTHTTYPEGLEVLHFSSGQIEKHYPDGRKEITFPDQTVKNLFPDGQEESIFPDGTIVRVQRDGNKLIEFNNGQRELHTAQFKRREYPDGTVKTVYANGHQETKYRSGRIRVKDKEGNVLMDTEL
modifications: full-length GFP tag
notes: GFP-tagged full-length CPAP polypeptide, residues 1-1338, expressed from a transfected vector
- Inhibition of microtubule reassembly in cold-treated cells (in words) (HeLa cells; transfected HeLa cells expressing lower levels of the construct): no significant inhibition
- Inhibition of microtubule reassembly in cold-treated mitotic cells (in words) (HeLa cells): significantly inhibited microtubule reassembly

B2: GFP-CM: GFP-tagged CPAP residues 132-607, expressed from a transfected vector (protein, UniProt Q9HC77 132-607, looked up, fragment)
chain: EFKEGAYKDPLFKKLEQLKEVQQKKQEQLKRQQLEQLQRLMEEQEKLLTMVSGQCTLPGLSLLPDDQSQKHRSPGNTTTGERATCCFPSYVYPDPTQEETYPSNILSHEQSNFCRTAHGDFVLTSKRASPNLFSEAQYQEAPVEKNNLKEENRNHPTGESILCWEKVTEQIQEANDKNLQKHDDSSEVANIEERPIKAAIGERKQTFEDYLEEQIQLEEQELKQKQLKEAEGPLPIKAKPKQPFLKRGEGLARFTNAKSKFQKGKESKLVTNQSTSEDQPLFKMDRQQLQRKTALKNKELCADNPILKKDSKARTKSGSVTLSQKPKMLKCSNRKSLSPSGLKIQTGKKCDGQFRDQIKFENKVTSNNKENVTECPKPCDTGCTGWNKTQGKDRLPLSTGPASRLAAKSPIRETMKESESSLDVSLQKKLETWEREKEKENLELDEFLFLEQAADEISFSSNSSFVLKILERDQQI
modifications: GFP tag
notes: GFP-tagged CPAP residues 132-607, expressed from a transfected vector
- Inhibition of microtubule reassembly in cold-treated mitotic cells (in words) (HeLa cells): significantly inhibited microtubule reassembly

B3: GFP-A5M2: GFP-tagged CPAP residues 607-1070 (protein, UniProt Q9HC77 607-1070, looked up, fragment)
chain: ICKGHRMSSTPVKAVPQKTNPADPISHCNRSEDLDHTAREKESECEVAPKQLHSLSSADELREQPCKIRKAVQKSTSENQTEWNARDDEGVPNSDSSTDSEEQLDVTIKPSTEDRERGISSREDSPQVCDDKGPFKDTRTQEDKRRDVDLDLSDKDYSSDESIMESIKHKVSEPSRSSSLSLSKMDFDDERTWTDLEENLCNHDVVLGNESTYGTPQTCYPNNEIGILDKTIKRKIAPVKRGEDLSKSRRSRSPPTSELMMKFFPSLKPKPKSDSHLGNELKLNISQDQPPGDNARSQVLREKIIELETEIEKFKAENASLAKLRIERESALEKLRKEIADFEQQKAKELARIEEFKKEEMRKLQKERKVFEKYTTAARTFPDKKEREEIQTLKQQIADLREDLKRKETKWSSTHSRLRSQIQMLVRENTDLREEIKVMERFRLDAWKRAEAIESSLEVEKKDK
modifications: GFP tag
- Inhibition of microtubule reassembly in cold-treated mitotic cells (in words) (HeLa cells): no significant inhibition

B4: GFP-A5N: GFP-tagged CPAP residues 423-607 (protein, UniProt Q9HC77 423-607, looked up, fragment)
chain: KTALKNKELCADNPILKKDSKARTKSGSVTLSQKPKMLKCSNRKSLSPSGLKIQTGKKCDGQFRDQIKFENKVTSNNKENVTECPKPCDTGCTGWNKTQGKDRLPLSTGPASRLAAKSPIRETMKESESSLDVSLQKKLETWEREKEKENLELDEFLFLEQAADEISFSSNSSFVLKILERDQQI
modifications: GFP tag
- Inhibition of microtubule reassembly in cold-treated mitotic cells (in words) (HeLa cells): no significant inhibition

B5: GFP-A5C: GFP-tagged CPAP residues 1070-1338 (protein, UniProt Q9HC77 1070-1338, looked up, fragment)
chain: KLANTSVRFQNSQISSGTQVEKYKKNYLPMQGNPPRRSKSAPPRDLGNLDKGQAASPREPLEPLNFPDPEYKEEEEDQDIQGEISHPDGKVEKVYKNGCRVILFPNGTRKEVSADGKTITVTFFNGDVKQVMPDQRVIYYYAAAQTTHTTYPEGLEVLHFSSGQIEKHYPDGRKEITFPDQTVKNLFPDGQEESIFPDGTIVRVQRDGNKLIEFNNGQRELHTAQFKRREYPDGTVKTVYANGHQETKYRSGRIRVKDKEGNVLMDTEL
modifications: GFP tag
- Inhibition of microtubule reassembly in cold-treated mitotic cells (in words) (HeLa cells): no significant inhibition

B6: GFP-PN1: GFP-tagged CPAP residues 1-132 (protein, UniProt Q9HC77 1-132, looked up, fragment)
chain: MFLMPTSSELNSGQNFLTQWMTNPSRAGVILNRGFPILEADKEKRAAVDISTSFPIKGTHFSDSFSFINEEDSLLEEQKLESNNPYKPQSDKSETHTAFPCIKKGPQVAACHSAPGHQEENKNDFIPDLASE
modifications: GFP tag
- Inhibition of microtubule reassembly in cold-treated mitotic cells (in words) (HeLa cells): no significant inhibition

B7: GFP-PN2-2: GFP-tagged CPAP residues 191-310 (protein, UniProt Q9HC77 191-310, looked up, fragment)
chain: LSLLPDDQSQKHRSPGNTTTGERATCCFPSYVYPDPTQEETYPSNILSHEQSNFCRTAHGDFVLTSKRASPNLFSEAQYQEAPVEKNNLKEENRNHPTGESILCWEKVTEQIQEANDKNL
modifications: GFP tag
- Inhibition of microtubule reassembly in cold-treated mitotic cells (in words) (HeLa cells): no significant inhibition
